{"source": "patent US20130281317A1", "about": "(ALLBERT EINSTEIN COLLEGE OF MEDICINE OF YESHIVA UNIVERSITY, published 2013)", "binders": {"B1": {"name": "2G12 (Fab)2 fragment displayed bivalently on M13 phage from p2G12-Fab2zip (WT) (Fab, V domains shown, not shown: a dimerising Fc or GST; large carriers)", "VH": "EVQLVESGGGLVKAGGSLILSCGVSNFRISAHTMNWVRRVPGGGLEWVASISTSSTYRDYADAVKGRFTVSRDDLEDFVYLQMHKMRVEDTAIYYCARKGSDRLSDNDPFDAWGPGTVVTVSP", "VL": "VVMTQSPSTLSASVGDTITITCRASQSIETWLAWYQQKPGKAPKLLIYKASTLKTGVPSRFSGSGSGTEFTLTISGLQFDDFATYHCQHYAGYSATFGQGTRVEIKR", "notes": "also called 2G12-Fab-biv phage; WT 2G12 clone"}}, "target": "bovine serum albumin (BSA) (bovine, UniProt P02769 25-607)", "sequence (P02769 25-607 limits assumed)": "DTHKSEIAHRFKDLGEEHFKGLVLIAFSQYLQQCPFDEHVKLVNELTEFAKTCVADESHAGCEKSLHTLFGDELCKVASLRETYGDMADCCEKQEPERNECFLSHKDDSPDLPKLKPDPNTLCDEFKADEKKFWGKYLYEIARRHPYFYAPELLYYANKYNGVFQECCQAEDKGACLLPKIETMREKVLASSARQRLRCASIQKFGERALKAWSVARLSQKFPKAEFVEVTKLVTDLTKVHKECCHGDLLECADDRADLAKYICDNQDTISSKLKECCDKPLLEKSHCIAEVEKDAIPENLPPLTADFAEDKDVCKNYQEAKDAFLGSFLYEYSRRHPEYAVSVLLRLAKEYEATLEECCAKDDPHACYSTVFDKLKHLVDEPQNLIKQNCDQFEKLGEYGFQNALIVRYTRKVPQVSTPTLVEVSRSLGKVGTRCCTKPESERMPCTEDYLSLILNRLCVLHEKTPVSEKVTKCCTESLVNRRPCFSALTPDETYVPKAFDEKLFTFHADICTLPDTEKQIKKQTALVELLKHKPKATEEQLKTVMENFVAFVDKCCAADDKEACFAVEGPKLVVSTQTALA", "assay": "phage ELISA, coated wells"}
{"binder": "B1", "values": [{"measurement": "binding result", "value": "no binding"}]}
